The structures appear in SMILES notation. Values after ≈ are worked out from the molar mass of the structure shown. Read-outs that look alike come from different tables or passages of the source.

For data set [1], the system named is HT-29 cell subcutaneous xenograft tumor. Put plainly: Pharmacodynamic assessment, HT-29 xenograft model. It counts as in vivo, BALB/c nude mouse. An excerpt: Objective: Pre-clinical assessment of the efficacy of CR202 series of compounds for treating BALB/c nude mouse model with HT-29 cell subcutaneous xenograft tumor.
Procedures: HT-29 cells were subcutaneously grafted at the right back of the mice, and the mice were randomized when the mean tumor volume reached 100-150 mm^3. After the administration, the routine monitoring included the effect on tumor growth and the effect of treatment on the normal behavior of the animals, specifically the activity, food and water intake, weight gain or loss, the eyes, the hair, and other abnormal conditions. Clinical symptoms observed during the study were recorded in the raw data. After the administration was started, the body weight and tumor size of the mice were measured periodically. The tumor volume was calculated using the following formula: V=1/2×(a×b^2), where a and b denote the long diameter and short diameter of the tumor, respectively.

Data set [2] deals with human prostate cancer 22Rv-1 cell subcutaneous xenograft. Put plainly: Pharmacodynamic assessment, 22Rv-1 xenograft model (Example 17). Conditions: for Safety: 2.87 / 2.88 mg/kg i.v biw×3w. The data set is classed as in vivo, BALB/c nude male mouse. As to the method:
Objective: Pre-clinical anti-tumor effect assessment of CR202 series of compounds in BALB/c nude male mouse model with human prostate cancer 22Rv-1 cell subcutaneous xenograft.
Procedures: 22Rv-1 (CL-00458) cells were cultured in a PRMI1640 medium containing 10% fetal bovine serum. The 22Rv-1 cells in the exponential phase were collected and resuspended in PBS to an appropriate concentration for subcutaneous tumor grafting in nude mice. The mice were subcutaneously grafted at the right back with 1×10^7 22Rv-1 cells, which were resuspended in a mixture of PBS and matrigel (1:1, 0.1 mL/mouse). The growth of the tumors was observed periodically. When the mean volume of the tumors reached 100-150 mm^3, the mice were randomized according to the tumor size. After the administration, the routine monitoring included the effect on tumor growth and the effect of treatment on the normal behavior of the animals, specifically the activity, food and water intake, weight gain or loss, the eyes, the hair, and other abnormal conditions. Clinical symptoms observed during the study were recorded in the raw data. After the administration was started, the body weight and tumor size of the mice were measured periodically. The tumor volume was calculated using the following formula: V=1/2×(a×b^2), where a and b denote the long diameter and short diameter of the tumor, respectively.

Another data set relates to 22RV1. It counts as cell-based, human. Conditions: 22RV1, 72 h, CellTiter-Glo. The text has this:
(§1) Negative and blank controls were set.
A general note: In ATP-based viability assays light output follows the ATP content of the culture.

Another data set has as its system MDA-MB-231. The data set is classed as cell-based, human. The following applies: MDA-MB-231, 72 h, CellTiter-Glo.
Description: as §1

The test system of the next data set is C4-2. The following applies: C4-2, 72 h, CellTiter-Glo.
A short description of another data set: Plasma stability study 2. Conditions: mouse plasma, 37° C.; for remaining at 0.5 h, 100 μg/mL / remaining at 1 h, 100 μg/mL / remaining at 2 h, 100 μg/mL / remaining at 4 h, 100 μg/mL / remaining at 6 h, 100 μg/mL: read-out: Residual rate of principal component. It counts as in vitro ADME.
For a further data set, the target named is cathepsin B-human liver (Homo sapiens, UniProt P07858). The following applies: 37° C.
A short description of a further data set: Solubility study in PBS. The data set is classed as physicochemical. The following applies: aqueous buffer, thermodynamic from solid; PBS (pH 7.2 to 7.4); read-out: Solubility, concentration. On the procedure:
The mixture was vortexed for 2 min until the solid was dissolved. The solubility was calculated as: C=m/V, C: concentration, m: sample weight, V: PBS total volume.

Where [3] appears, read: 10.9 mg/kg i.v BIW×3, day 25 after grouping.
Setting [4] is: 22.7 mg/kg i.v BIW×3, day 25 after grouping.
The mark [5] stands for this setting: 2.88 mg/kg i.v BIW×3, day 29 after grouping.

Description for C4-2: Cells were prepared in advance, trypsinized, collected, counted, diluted to 1.5×10^4 cells/mL in a complete cell culture medium, and plated in 96-well plates. The diluted cell suspension was added at 100 μL/well, and negative and blank control wells were set on each plate. The 96-well plates with the added cells were incubated overnight at 37° C. in a 5% CO2 incubator.
Samples were serially diluted with medium (serially 3-fold diluted from 10 μM) to 9 concentrations. The medium in the plates was discarded, and the drug solutions were added at 100 μL per well to a 96-well plate in triplicate. Negative and blank controls were set. The plates were incubated at 37° C. for 72 h in a 5% CO2 incubator.
The CellTiter-Glo buffer was thawed and warmed to room temperature, and the CellTiter-Glo substrate was warmed to room temperature. The CellTiter-Glo buffer was added to the flask containing CellTiter-Glo substrate to dissolve the substrate, thereby preparing a CellTiter-Glo working solution, which was then vortexed slowly to complete dissolution. The cell culture plates were equilibrated at room temperature for 30 min, before the CellTiter-Glo working solution was added at 50 μL/well (about half the volume of cell culture medium in each well). The plate was covered by aluminum foil to keep out of light. The culture plate was shaken on an orbital shaker for 2 min to induce cell lysis. The culture plate was left to stand at room temperature for 10 min to stabilize the luminescence signals. The luminescence signal was detected on a microplate reader (Molecular Devices SpectraMax iD5).
Four-parameter curves were fitted using GraphPad Prism 8.0.2 to give IC50 values.
Description for Plasma stability study 2: • 1) The conjugate compounds were prepared into 1 mg/mL stock solutions with 0.1% TFA-acetonitrile water (1:1); • 2) 10 μL of 1 mg/mL compound stock solution was added into 90 μL of fresh plasma, and the mixture was well mixed by gentle shaking, and transferred to a thermostatic incubator at 37° C. for 0 h, 0.5 h, 1 h, 2 h, 4 h, 6 h, or 24 h of incubation; • 3) at the time points, samples were taken out and 300 μL of methanol solution (containing 10 ng/ml of terfenadine) was added for protein precipitation; • 4) the mixture was centrifuged (13 min, 4° C., 12000 rpm) and the supernatant was collected, and preserved in a −80° C. refrigerator; after collection, the samples were loaded for LC-MS analysis.
Description for cathepsin B-human liver: • 1) The conjugate compounds were prepared into 500 μg/mL stock solutions with 0.1% TFA-acetonitrile water (1:1); • 2) 60 μL of 500 μg/mL compound stock solution was added to 536 μL of 50 mM NaOAc (containing 1 mM EDTA+10 mM Cys), before 4 μL of cathepsin B (CB enzyme) was added, and the mixture was well mixed by gentle shaking. • 3) The cleavage reaction system in step 2) was transferred to a thermostatic incubator at 37° C. for 0 h, 1 h, 2 h, 4 h, or 24 h of incubation. Samples were taken and loaded at various time points for LC-MS analysis.

As usually defined, the TGI is the reduction of tumour growth relative to the control group. Lower therefore signals little slowing of growth. In data set [1] (setting [3]), `CCOCCNS(=O)(=O)NC(=O)OCCOCCNC(=O)[C@H](Cc1cn(CCOC(=O)NS(=O)(=O)NCCOCCOC(=O)N[C@H](C(=O)N[C@@H](CCCNC(N)=O)C(=O)Nc2ccc(COC(=O)N(CCOCCC#Cc3cccc4c3CN(C3CCC(=O)NC3=O)C4=O)[C@H]3CC[C@@H](n4cc(-c5ccc(Nc6ncc7c(n6)N(C)[C@H](CC)C(=O)N7C)cc5)nn4)CC3)cc2)C(C)C)nn1)NC(=O)CC[C@H](NC(=O)c1ccc(NCc2cnc3nc(N)nc(O)c3n2)cc1)C(=O)O` (stereo partly shown) [CR202HR] yielded a Mean tumor volume of 946.05 mm^3 and a TGI of 54.51%. In addition, in data set [1] (setting [4]), the Mean tumor volume was 614.73 mm^3 and the TGI was determined as 70.44%.
In data set [2] (setting [5]), `CCCOCCOCCOCCO[Si](Oc1ccc(COC(=O)N(CCOCCC#Cc2cccc3c2CN(C2CCC(=O)NC2=O)C3=O)[C@H]2CC[C@@H](n3cc(-c4ccc(Cc5ncc6c(n5)N(C5CCCC5)[C@H](CC)C(=O)N6C)c(OC)c4)nn3)CC2)cc1)(C(C)C)C(C)C` (stereo partly shown) [CR202HT] returned a Mean tumor volume of 690.37 mm^3 and a TGI of 58.19%. Moreover, the “Safety” value in data set [2] is given as “good safety”.
`CC[C@@H]1C(=O)N(C)c2cnc(Nc3ccc(-c4cn([C@H]5CC[C@@H](N(CCOCCC#Cc6cccc7c6CN(C6CCC(=O)NC6=O)C7=O)C(=O)OCc6ccc(OP(=O)(O)O)c(C(=O)NCCOCCOCCOCCn7cc(C[C@H](NC(=O)[C@H](CCCCN)NC(=O)[C@H](CC(=O)O)NC(=O)[C@H](CC(=O)O)NC(=O)Cc8ccc(CNC(=O)NCCCC[C@H](NC(=O)N[C@@H](CCC(=O)O)C(=O)O)C(=O)O)cc8)C(=O)N[C@@H](CCCCNC(=O)CC[C@H](NC(=O)c8ccc(NCc9cnc%10[nH]c(N)nc(=O)c%10n9)cc8)C(=O)O)C(N)=O)nn7)c6)CC5)nn4)cc3OC)nc2N1C1CCCC1` (stereo partly shown) [CR202LB]: the “Safety” value in data set [2] is reported as “good safety”.
One may read the IC50 as the midpoint of a concentration-inhibition curve. Read a high IC50 as weaker potency. Regarding `CC[C@@H]1C(=O)N(C)c2cnc(Nc3ccc(-c4cn([C@H]5CC[C@@H](N(CCOCCC#Cc6cccc7c6CN(C6CCC(=O)NC6=O)C7=O)C(=O)OCc6ccc(NC(=O)[C@H](CCCNC(N)=O)NC(=O)[C@@H](NC(=O)[C@H](CCC(=O)O)NC(=O)COCCOCCn7cc(C[C@H](NC(=O)[C@H](CCCCN)NC(=O)[C@H](CC(=O)O)NC(=O)[C@H](CC(=O)O)NC(=O)Cc8ccc(CNC(=O)NCCCC[C@H](NC(=O)N[C@@H](CCC(=O)O)C(=O)O)C(=O)O)cc8)C(=O)N[C@@H](CCCCNC(=O)CC[C@H](NC(=O)c8ccc(NCc9cnc%10[nH]c(N)nc(=O)c%10n9)cc8)C(=O)O)C(N)=O)nn7)C(C)C)cc6)CC5)nn4)cc3OC)nc2N1C1CCCC1` (stereo partly shown) [CR202V4], the IC50 with 22RV1 turned out to be 222 nM; in the data set on MDA-MB-231, 234 nM; with C4-2, 84.7 nM. The “CR20274 release rate (actual release/theoretical release)” value in “Plasma stability study 2” (0 h) is −0.12%; in “Plasma stability study 2” (0.5 h), 0.04%; in the data set “Plasma stability study 2” (1 h), 0.11%; in the data set “Plasma stability study 2” (2 h) it was 0.17%; in the data set “Plasma stability study 2” (4 h), 0.30%; in “Plasma stability study 2” (6 h), 0.42%. Further, the “CR20274 release rate (actual release/theoretical release)” value in the data set “Plasma stability study 2” (24 h) worked out at 2.62%. The “Residual rate of principal component” value in the data set “Plasma stability study 2” (0 h) turned out to be 84.13%; in the data set “Plasma stability study 2” (24 h) it was 1.36%. Further, in “Plasma stability study 2” (0.5 h), the remaining at 0.5 h, 100 μg/mL worked out at 75.9%. Further, the remaining at 1 h, 100 μg/mL in “Plasma stability study 2” (1 h) came out at 74.3%. Also, in the data set “Plasma stability study 2” (2 h), the remaining at 2 h, 100 μg/mL was determined as 78.2%. The remaining at 4 h, 100 μg/mL in “Plasma stability study 2” (4 h) was determined as 61.3%. The remaining at 6 h, 100 μg/mL in the data set “Plasma stability study 2” (6 h) was found to be 70.4%. Also, the “CR20274 release rate of compounds after cleavage” value with cathepsin B-human liver (0 h) was found to be 0%; in the data set with cathepsin B-human liver (1 h), 100%; with cathepsin B-human liver (2 h) it was 100%; in the data set with cathepsin B-human liver (4 h), 100%; in the data set with cathepsin B-human liver (24 h) it was 100%. Also, the “Principal component residue of compounds after cleavage” value in the data set with cathepsin B-human liver (0 h) is listed as 100.00%; with cathepsin B-human liver (1 h), 0.00%; with cathepsin B-human liver (2 h), 0.00%; with cathepsin B-human liver (4 h) it was 0.00%; with cathepsin B-human liver (24 h) it was 0.00%. The solubility at 2 min in “Solubility study in PBS” was determined as 8000 µg/mL (≈ 2580 µM).
For `CC[C@@H]1C(=O)N(C)c2cnc(Nc3ccc(-c4cn([C@H]5CC[C@@H](N(CCOCCC#Cc6cccc7c6CN(C6CCC(=O)NC6=O)C7=O)C(=O)OCc6ccc(NC(=O)[C@H](CCCNC(N)=O)NC(=O)[C@@H](NC(=O)COCCOCCn7cc(C[C@H](NC(=O)[C@H](CCCCN)NC(=O)[C@H](CC(=O)O)NC(=O)[C@H](CC(=O)O)NC(=O)Cc8ccc(CNC(=O)NCCCC[C@H](NC(=O)N[C@@H](CCC(=O)O)C(=O)O)C(=O)O)cc8)C(=O)N[C@@H](CCCCNC(=O)CC[C@H](NC(=O)c8ccc(NCc9cnc%10[nH]c(N)nc(=O)c%10n9)cc8)C(=O)O)C(N)=O)nn7)C(C)C)cc6)CC5)nn4)cc3OC)nc2N1C1CCCC1` (stereo partly shown) [CR202V5], the IC50 in the data set with 22RV1 stood at 779 nM; in the data set with MDA-MB-231, 412 nM; in the data set with C4-2, 144 nM. For the same compound, the “CR20274 release rate (actual release/theoretical release)” value in “Plasma stability study 2” (0 h) was 0.02%; in the data set “Plasma stability study 2” (0.5 h) it was 0.17%; in the data set “Plasma stability study 2” (1 h), 0.25%; in the data set “Plasma stability study 2” (2 h), 0.37%; in “Plasma stability study 2” (4 h), 0.94%; in “Plasma stability study 2” (6 h), 0.97%. For the same compound, the “CR20274 release rate (actual release/theoretical release)” value in the data set “Plasma stability study 2” (24 h) came to 3.92%. The “Residual rate of principal component” value is on record as 94.75% in the data set “Plasma stability study 2” (0 h) and −1.03% in “Plasma stability study 2” (24 h). In the data set “Plasma stability study 2” (0.5 h), the remaining at 0.5 h, 100 μg/mL amounted to 101%. In addition, the remaining at 1 h, 100 μg/mL in the data set “Plasma stability study 2” (1 h) was 94.9%. Besides, in “Plasma stability study 2” (2 h), the remaining at 2 h, 100 μg/mL is 94.7%. In “Plasma stability study 2” (4 h), the remaining at 4 h, 100 μg/mL was 90.6%. Moreover, the remaining at 6 h, 100 μg/mL in “Plasma stability study 2” (6 h) was 80.4%. Further, the “CR20274 release rate of compounds after cleavage” value in the data set with cathepsin B-human liver (0 h) is given as 0%; with cathepsin B-human liver (1 h), 100%; in the data set with cathepsin B-human liver (2 h) it was 100%; with cathepsin B-human liver (4 h), 100%; with cathepsin B-human liver (24 h), 100%. Also, the “Principal component residue of compounds after cleavage” value worked out at 100.00% with cathepsin B-human liver (0 h); 2.37% with cathepsin B-human liver (1 h); 0% with cathepsin B-human liver (2 h); 0% in the data set with cathepsin B-human liver (4 h); 0% with cathepsin B-human liver (24 h). For the same compound, the solubility in the data set “Solubility study in PBS” stood at 2800 µg/mL (≈ 941 µM).
